This is an account of results in US20200061156A1 (UNIVERSITY OF QUEENSLAND, published 2020).

Test [1] concerns the target rat acid sensing ion channel subtype 1a (homomeric, expressed in Xenopus laevis oocytes) (rat) (UniProt P55926). As to the kind of experiment: cell-based or functional assay.
The target is the same in test [2]. As to the kind of experiment: inhibition of rASIC1a currents in Xenopus oocytes.
The target of test [3] is T1, rat acid sensing ion channel subtype 2a (homomeric, expressed in Xenopus laevis oocytes) (rat, UniProt Q62962 1-512).
T1 sequence: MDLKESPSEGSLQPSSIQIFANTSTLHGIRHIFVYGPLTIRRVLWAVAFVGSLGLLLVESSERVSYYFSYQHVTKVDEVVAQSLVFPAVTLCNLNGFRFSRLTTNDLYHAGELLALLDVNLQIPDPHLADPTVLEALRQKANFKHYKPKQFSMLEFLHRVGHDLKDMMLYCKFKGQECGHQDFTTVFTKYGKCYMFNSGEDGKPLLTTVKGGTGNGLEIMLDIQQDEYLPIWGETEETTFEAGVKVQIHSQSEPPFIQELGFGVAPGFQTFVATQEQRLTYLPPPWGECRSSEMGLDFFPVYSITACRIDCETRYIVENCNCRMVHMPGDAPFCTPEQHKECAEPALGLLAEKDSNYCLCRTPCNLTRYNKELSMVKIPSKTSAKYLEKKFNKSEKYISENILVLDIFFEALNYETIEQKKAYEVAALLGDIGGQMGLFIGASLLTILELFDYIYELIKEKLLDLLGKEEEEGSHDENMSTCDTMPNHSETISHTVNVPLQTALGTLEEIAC
Briefly: cell-based or functional assay.

For test [4], the target named is T2, rat acid sensing ion channel subtype 3 (homomeric, expressed in Xenopus laevis oocytes) (rat, UniProt O35240 1-533).
T2 sequence: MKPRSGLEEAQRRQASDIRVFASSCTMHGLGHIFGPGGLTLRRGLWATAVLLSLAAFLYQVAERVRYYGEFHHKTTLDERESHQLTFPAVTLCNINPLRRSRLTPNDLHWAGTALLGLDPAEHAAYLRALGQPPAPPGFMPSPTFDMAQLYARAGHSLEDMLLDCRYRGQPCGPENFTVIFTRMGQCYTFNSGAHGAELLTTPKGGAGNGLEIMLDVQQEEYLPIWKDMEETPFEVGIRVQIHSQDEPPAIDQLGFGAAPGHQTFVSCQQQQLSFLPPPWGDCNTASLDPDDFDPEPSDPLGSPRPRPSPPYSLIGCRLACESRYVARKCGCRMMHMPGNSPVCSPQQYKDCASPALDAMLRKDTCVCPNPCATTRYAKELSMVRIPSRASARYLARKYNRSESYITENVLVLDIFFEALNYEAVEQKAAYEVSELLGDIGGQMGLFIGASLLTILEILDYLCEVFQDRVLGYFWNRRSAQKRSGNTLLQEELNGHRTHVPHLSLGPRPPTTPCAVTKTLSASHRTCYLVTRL
Briefly: cell-based or functional assay.

Test [5] has as its target human acid sensing ion channel subtype 1a (homomeric, expressed in Xenopus laevis oocytes) (human), P78348. Briefly: cell-based or functional assay.
For test [6], the target named is rat acid sensing ion channel subtype 1b (homomeric, expressed in Xenopus laevis oocytes) (rat), P55926. Briefly: cell-based or functional assay.
rat acid sensing ion channel subtype 1b (homomeric, expressed in Xenopus laevis oocytes) (rat), P55926, sequence (P55926 whole entry): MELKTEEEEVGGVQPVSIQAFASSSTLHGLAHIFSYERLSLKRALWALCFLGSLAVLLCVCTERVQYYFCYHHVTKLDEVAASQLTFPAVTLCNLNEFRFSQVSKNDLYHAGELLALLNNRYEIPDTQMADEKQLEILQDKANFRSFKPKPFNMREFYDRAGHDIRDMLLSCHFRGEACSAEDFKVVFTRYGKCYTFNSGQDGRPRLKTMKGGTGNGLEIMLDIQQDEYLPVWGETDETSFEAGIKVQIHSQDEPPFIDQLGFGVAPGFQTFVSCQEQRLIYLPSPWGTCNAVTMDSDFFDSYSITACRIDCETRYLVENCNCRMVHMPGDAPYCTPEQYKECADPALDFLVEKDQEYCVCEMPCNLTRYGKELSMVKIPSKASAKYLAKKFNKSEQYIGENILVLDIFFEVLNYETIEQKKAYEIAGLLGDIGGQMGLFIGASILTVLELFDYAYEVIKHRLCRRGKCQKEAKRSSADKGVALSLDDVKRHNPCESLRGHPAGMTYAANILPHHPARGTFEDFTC

Substitutions are numbered along the chain they refer to.

rat acid sensing ion channel subtype 1a (homomeric, expressed in Xenopus laevis oocytes) (rat), sequence (P55926 whole entry): as above
human acid sensing ion channel subtype 1a (homomeric, expressed in Xenopus laevis oocytes) (human), P78348, sequence (P78348 whole entry): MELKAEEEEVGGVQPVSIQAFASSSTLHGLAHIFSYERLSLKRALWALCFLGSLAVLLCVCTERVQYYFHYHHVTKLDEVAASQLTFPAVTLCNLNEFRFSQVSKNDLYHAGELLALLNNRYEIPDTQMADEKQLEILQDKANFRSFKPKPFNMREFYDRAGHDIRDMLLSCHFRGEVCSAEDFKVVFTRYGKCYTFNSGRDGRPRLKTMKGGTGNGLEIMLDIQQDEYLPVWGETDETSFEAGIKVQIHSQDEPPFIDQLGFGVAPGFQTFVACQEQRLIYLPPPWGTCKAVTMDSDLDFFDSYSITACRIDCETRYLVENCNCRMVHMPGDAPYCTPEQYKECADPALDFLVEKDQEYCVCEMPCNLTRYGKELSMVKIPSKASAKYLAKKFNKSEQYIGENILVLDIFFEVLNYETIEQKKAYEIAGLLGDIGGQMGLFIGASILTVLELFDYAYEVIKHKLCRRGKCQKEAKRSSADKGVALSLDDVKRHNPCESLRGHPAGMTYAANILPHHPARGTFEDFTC

Regarding “N-terminal ICK domain of Hi1a (Hi1a-N), produced in E. coli (peptide)”, in test [1], the IC50 (inhibition of acid-evoked current, TEVC, Xenopus oocytes) turned out to be 1000 nM and the fold lower potency than PcTx1 or full-length Hi1a amounted to 1000 fold.
Usually IC50 stands for the concentration at which inhibition is half-maximal. The low end stands for higher potency, the high end for lower potency. Molecule “recombinant Hi1a (π-hexatoxin-Hi1a) expressed in E. coli” showed an IC50 in test [2] of 0.464 nM.
On to “C-terminal ICK domain of Hi1a (Hi1a-C), produced in E. coli”, for which the IC50 in test [2] was more than 30000 nM.
In test [1], “recombinant Hi1a (π-hexatoxin-Hi1a) expressed in E. coli (peptide)” yielded a % Residual Current of 30% and an IC50 (inhibition of acid-evoked current, TEVC, Xenopus oocytes) of 0.46 nM.
Turning to recombinant Hi1d (peptide), in test [1], the % Residual Current is 0%; the IC50 (inhibition of acid-evoked current, TEVC, Xenopus oocytes) is 193 nM; the time to full reversal of inhibition on washout (TEVC) is less than 60 s.

B1: recombinant engineered peptide #1 (EP 1), two copies of PcTx1 joined by a linker (designed binder)
peptide: SEDCIPKWKGCVNRHGDCCEGLECWKRRRSFEVCVPKTEDCIPKWKGCVNRHGDCCEGLECWKRRRSFEVCVPKTPKT
With B1, in test [1], the % Residual Current amounted to 0%; the IC50 (inhibition of acid-evoked current, TEVC, Xenopus oocytes) was 64 nM; the fold increase in IC50 against wild-type Hi1a amounted to 200 fold.

B2: recombinant engineered peptide #2 (EP 2), as EP 1 with a Glu to Gly mutation in the linker (designed binder)
peptide: B1 peptide with E39G
In test [1], B2 registered a % Residual Current of 0%; an IC50 (inhibition of acid-evoked current, TEVC, Xenopus oocytes) of 215 nM; a fold increase in IC50 against wild-type Hi1a of 500 fold.

B3: recombinant Hi1a (π-hexatoxin-Hi1a) expressed in E. coli (peptide)
peptide: SNECIRKWLSCVDRKNDCCEGLECYKRRHSFEVCVPIPGFCLVKWKQCDGRERDCCAGLECWKRSGNKSSVCAPIT
Turning to B3, the “fold higher potency at ASIC1a over this subtype (from 1 µM Hi1a, TEVC)” value in test [3], in test [4] and in test [6] was more than 2000 fold in each case. The entries for the “selectivity for ASIC1a over this subtype (from 30 nM Hi1a, TEVC)” value in test [3], in test [4] and in test [6] were not below 50 fold, not below 50 fold and more than 50 fold, respectively. Moreover, the % Residual Current in test [5] is 20%. The IC50 (inhibition of acid-evoked current, TEVC, Xenopus oocytes) in test [5] was found to be 0.59 nM.
